Measurements from US6673915.

Molecular target: human CCR2b with the FLAG epitope at the extreme amino-terminus, stably expressed on HEK-293 cells (Example 10B) (human), P41597
Experiment: cell-based or functional assay

Sequence of human CCR2b with the FLAG epitope at the extreme amino-terminus, stably expressed on HEK-293 cells (Example 10B) (human), P41597 (P41597 whole entry): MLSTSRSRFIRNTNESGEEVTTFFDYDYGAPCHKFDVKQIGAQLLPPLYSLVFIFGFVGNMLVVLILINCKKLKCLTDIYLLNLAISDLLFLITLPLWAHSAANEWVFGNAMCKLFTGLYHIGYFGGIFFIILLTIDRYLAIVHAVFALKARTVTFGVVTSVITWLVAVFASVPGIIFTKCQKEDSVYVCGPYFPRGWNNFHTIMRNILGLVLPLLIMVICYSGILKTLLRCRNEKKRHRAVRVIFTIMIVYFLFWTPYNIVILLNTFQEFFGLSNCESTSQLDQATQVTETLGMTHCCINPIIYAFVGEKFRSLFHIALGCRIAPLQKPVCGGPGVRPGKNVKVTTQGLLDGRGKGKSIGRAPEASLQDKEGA

B1: murine MCP-5, predicted mature 82 amino acid protein beginning with the N-terminal glycine (E. coli, PeproTech), Q62401 23-104 (ligand)
chain: GPDAVSTPVTCCYNVVKQKIHVRKLKSYRRITSSQCPREAVIFRTILDKEICADPKEKWVKNSINHLDKTSQTFILEPSCLG
Binder B1 has an EC50 of intracellular calcium flux of 5 nM.
